Source: the nanobody polyreactivity screen of Harvey et al. (2022)

experiment: yeast display, Sf9 membrane polyspecificity reagent, FACS + sequencing; frameworks hold sequencing errors
Procedure, shortened: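 In a synthetic yeast display library (Saccharomyces cerevisiae BJ5465), nanobody expression was induced with galactose for 36–48 hours. FACS gates were set low and high (top ~1%) using anti-HA fluorescence for expression and streptavidin fluorescence for binding of the Sf9 membrane reagent. Each polyreactivity label is drawn from the gate of origin.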

Sequence | polyreactivity (PSR sort gate)
QVQHVESGGGIVQAGGSLRLTCAASGSTFGGNGMGWYRQAPGKEREFVATNTWRSVSTYYADSVKGRFTISRDNAKNTDFLQMISLKPEDTAVYYCAARLYRFASYRMDYWGQGTQVTVSS | high polyreactivity
QVQHVESGGGIVQAVGSLRLSCAASGSIFYYNAMGWYRQAPGKERELVAAISSGGSTYYADSVKGRFTISRDNAKNTVYLQMNSLKPEDTAVYYCAAKPAFRYLYSRYYPELGGYWGQGTQVTVSS | high polyreactivity
QVQHVESGGGLFQAGGSLRLSCAASGRIFSYYAMGWYRQAPGKERELVAAINWNGGRTYYADSVKGRFTISRDNAKNSVYLQMNSLKPEDTAVYYCNARYSGKYDYWRQGTQVTVSS | high polyreactivity
QVQHVESGGGLLQAGGSLRLICAAYGSTFGTYAMGWYRQAPGKERELVATISIGGITYYADSVKGRFTNSRDNAKYTVYLQMNSLKPEVTAVYYCAKDVTDATSRSDPSGDDYWGQGTQVTVSS | low polyreactivity
QVQHVESGGGLLQAGGSLRLSCAASGRIFYGNAMGWYRQATGKERELVAAILWRGGTTYYADSVKGRFTISRDNAMNTVYLLMISLKPEDTSDYNCTADEPYKYYYWGQGTQVTVSS | low polyreactivity
QVQHVESGGGLLQAGGSLRLSCAASGSIFYVYAMGWYRQAPGKERELVASISCGDSSTYYADSVKGRFTISRDNAKNTVYLQMNILIPEDTAVYYCAADDYRQYALYDYWGQGTHVTVSS | low polyreactivity
QVQHVESGGGLVHAGGSLRLSCAASGLIFRNNAMVLYRQAPGTERELDASITSDGSTNYADSVKGRFRISRDNAKNSFYLQMNSLKPEDTAVYYCAADGYTYWYYQLIPDYDYWGQGTQVTVSS | low polyreactivity
QVQHVESGGGLVHPGGILRLSCAASGLTFGRNAMGWYRQAPGKERELVAAISRSGGRTSYADSVKGRLTISRDNAKNTVYLQMNSLKPEDTAVYYCAARSPIYRTTYDYWGQGTQVTVSS | high polyreactivity
QVQHVESGGGLVQAGASLRLSCAASRRTFYRYAMGWSRQAPGKERELVAAISSGGSTNYADCVKGRFTISRDNAKNTVYLHMNRLKPEDTAVYYCAAETRLHRQDYDYWGQGTQVTVSS | low polyreactivity
QVQHVESGGGLVQAGCSLRLSCAASGRIFKPYVMGWYRQAPGKETELVSAISWSGGASTYYADSVKGRFTISRDNAKNTVYLQMNSLKPEDTAVYYCAADPFTIPTSEFYYWGQGTQVTVSS | low polyreactivity
QVQHVESGGGLVQAGCSLRLSCAASGRTFTYYAMGWYRQARGKESELVATISWRGSSTYYADSVKGRFTISRDNAKNTVYLQMNSLKPEDTAFYYCAARTYRWGYEDNYWGQGTQVTVSS | high polyreactivity
QVQHVESGGGLVQAGGSHRLSCAASGRTFDTNDMGWYRQPPGKERELVAVITARGGNTSYADSVKGRFTISRDNAKNPVYLQMNSLKPEDTAVYYCAAESQSTSYGLDYWGQGTQVTVSS | low polyreactivity
QVQHVESGGGLVQAGGSLGLSCAASGRIFGVYAMGWYTQAPGKERELVAAIWSGGSTYYADSVKGRFTISRDNAKNTVYLQMNSLKPEDTAVYYCAADDAYSHRSLYSHNDYWGQGNQVTVSS | low polyreactivity
QVQHVESGGGLVQAGGSLRLNCAASGSTFFGNAMGWYRQAPGKERELVAAISGSGGSTYYADSVKGRFTISRDNAKNTVYLQMNSLKPEDTAVYYCAKYYLTGLARYDYWGQGTQVTVSS | high polyreactivity
QVQHVESGGGLVQAGGSLRLSCAASGFIFGYYTMGWSRQAPGKERELVAAITSGDSTNYADSVKGRFTISRDNAKNTVYLQMNSLKPEDTAVYYCNARGLFTWMDYWGQGTQVTVSS | low polyreactivity
QVQHVESGGGLVQAGGSLRLSCAASGFTFHRYAMGWYRQAAGKERELVARISRSAGSTYYADSVKGRFTISRDNAKNTVYLQMNSLKPEDTAVYYCAAAQRRYGRGYGYWGQGTQVTVSS | high polyreactivity
QVQHVESGGGLVQAGGSLRLSCAASGFTFKFYTMGWYRQAPGKERELVAAISRSGGTTYYADSVKGRFTISRDNAKNTVYLQMTSLKPEDTAVYYCAAPRTKYLSKYGYWGQGTQVTVSS | high polyreactivity
QVQHVESGGGLVQAGGSLRLSCAASGFTFNYYAMGWYRQAPGKERELVAAITSSGGSTYYADSVKGRFTISRDNAKNTVYLQMNSLKPEDTAVYYCNAAVYAHRYIDGFDYWGQGTQVTVSS | high polyreactivity
QVQHVESGGGLVQAGGSLRLSCAASGFTFPSYAMGWYRQAPGKERELVAGISRGGTRTYYADSVKGRFTISRDNAKNTVYLQMYSLKPEDTAVYYCAATHGLRIRFPGDYWGQGTQVTVSS | high polyreactivity
QVQHVESGGGLVQAGGSLRLSCAASGFTFRVYAMGWYRQARGKEMELVAAISRSGGSTYYADSVKRRFTISRDNEKNTVYLQMNSLKPEDTAVYYCGGGWKRGRYDYWGQGTQVTVSS | high polyreactivity
QVQHVESGGGLVQAGGSLRLSCAASGFTFWYYAMGWYRRATGKERELIASISSIGGSTYYADSVKGRYTISRDNAKNTVYLQMNSLKAEDTAVYYCAARYKFLRGGVRRDYWGQGTQVTVSS | high polyreactivity
QVQHVESGGGLVQAGGSLRLSCAASGFTFYSYAMGWYRQAPGKERELVASITSGGSTYYADSVKGRFTISRDNAKNTVYLQMNSLKPEDTAVYYCAAPAVKPRRSYYYWGQGTQVTVSS | high polyreactivity

Sequence | polyreactivity (PSR sort gate)
QVQHVESGGGLVQAGGSLRLSCAASGFTLFWNDMGWYRQAPGKERELVAAITSGDDTYADSVKGRFTISRDNAKNTVYLQMNSLKPEDTAVYYCNKDDPLRNVAQVILYEFYYWGQGTQVTVSS | low polyreactivity
QVQHVESGGGLVQAGGSLRLSCAASGFTSSRNAMGWSRQAPGKERELVATISSGGDTYYADSVKGRFTISRDNAKNSVYLQMNSLKPEYTAVYYCNKDTLYAWGYDYWGQGTQVTVSS | low polyreactivity
QVQHVESGGGLVQAGGSLRLSCAASGGIFYVNAMGWYRQEPGKERELVADITSDGVSKYYADSVKGRFTISRDNAKNTVYLQMNRLKPEDTAVYYCGGDNGGAGYYYGYVWYDYWGQGTQVTVSS | low polyreactivity
QVQHVESGGGLVQAGGSLRLSCAASGGTFYSYAMGWYRQAPGKERELVAAISRRGGSTYYADSVKGRFTISRDNAKNTVYLQLNSLKPEDTAVYYCAAKGPSYGVTRMYYWGQGTQVTVSS | high polyreactivity
QVQHVESGGGLVQAGGSLRLSCAASGIIFLFYAMGWYRQARGKERELVAAITGAGSTNYADSVKGRFTISRDNAKNTVYLQMNRLKPEDTAVYYCAARHYARYDYWGQGTQVTVSS | low polyreactivity
QVQHVESGGGLVQAGGSLRLSCAASGITFRVNAMGWYRQAPGKERELVASISRSGGSTYYADSVKGRFTISRDNAKNTVYLQMNSLKPEVTAVYYCAAAQKVLFYGRWFDYWGQCTQVTVSS | low polyreactivity
QVQHVESGGGLVQAGGSLRLSCAASGITLNSYAMGWYRQAPGTERELVAAISSDGTYYADSVKGRFTISRDNAKNTVYLQMNSLKPEDTAVYYCAAERNHGLVGSESVGRNDYWGQGTQVTVSS | low polyreactivity
QVQHVESGGGLVQAGGSLRLSCAASGITYGRYTMGWYRQAPGKERELVAAITNGDITYYADSVKGRFTISRDNAKNTVYLQMNSLKQEDTAVYYCAADRYFWYDYWGQGTQVTVSS | high polyreactivity
QVQHVESGGGLVQAGGSLRLSCAASGLIFTTYAMGWYRQAPGKERELVADINSDGSTYYADSVKGRFTISRDNAKNTVYLQMNSLKPEDTAVYYCAASSYYTITYKLIYWRNYDYWGHGTQVTVSS | low polyreactivity
QVQHVESGGGLVQAGGSLRLSCAASGLTFHQYAMGWYRQAPGKERELVAAITGSGGSTYYADSVKGRVTISRDKAKNTVYLQMYSLKPEDTAVYYCAAKTYRRGGGYWGQGSQVTVSS | high polyreactivity
QVQHVESGGGLVQAGGSLRLSCAASGLTFKANAMGWYRQAPGKERELVAAITWSGTSTYYADSVKGRFTISRDNAKNTVYLQMNRLKPEDTAVYYCNKPYDVWYHDYDYWGQGTQVTVSS | low polyreactivity
QVQHVESGGGLVQAGGSLRLSCAASGLTSRYYAMGWYRQAPGKERELVAAISSRGGRTYYADSVKGPFTISRDNAKNTVYLQMNSLKPEDTAVYYCNAVRGYSGNLRDYWGQGTQVTVSS | high polyreactivity
QVQHVESGGGLVQAGGSLRLSCAASGRIFGTNAMGWYRQAPGKERELVAAINGSDSSTYYADSVKGRFTISRDNAKNTVYLQMNSLKPEDTAVYYCNADWSGAPERSTDGYDYWGQGTQVTVSS | low polyreactivity
QVQHVESGGGLVQAGGSLRLSCAASGRIFHGYAMGWYRQSPGKERELVAAITSRGGSTYYADSVKGRFTISRDNAKNTVYLQMNSLKPEDTAVYYCNAGRYLYAFDYWGQGTQVTVSS | low polyreactivity
QVQHVESGGGLVQAGGSLRLSCAASGRIFPYKAMGWYRQAPGKERELVAAISKSGVRTYYADSVKGRFTISRDNAKNTVYLQMNSLKPEDTAVYYCARGGYPGSAEYDYWGQGTQVTVSS | high polyreactivity
QVQHVESGGGLVQAGGSLRLSCAASGRIFPYYAMGWYRQAPGKERELVATITSGGSTYYADSVKGRFTISRDNAKNTVYLQMNSLKPEDTAVYYCAARYPSIYYYSYDYWGQGTQVTVSS | high polyreactivity
QVQHVESGGGLVQAGGSLRLSCAASGRIFTFYTMGWYRQAPGKERELVAAINSGGSTYYADSVKGRFTISRDNAKNTVYLQMNSLIQEDTAVYYCNARVYPLWFRRGYDYWGQGTQVTVSS | high polyreactivity
QVQHVESGGGLVQAGGSLRLSCAASGRIFTYYTMGWYRQAPGKERELVAAISWSGGRTYYADSVKGRFTISRDNAKNTVYLQMNSLKPEDTAVYYCARLQDSRESPWRGYYWGQGTQVTVSS | high polyreactivity
QVQHVESGGGLVQAGGSLRLSCAASGRIIRGNVMGWYRQAPGKERELVATITSSARTYYADSVKGRFTISRDNAKNTVYLQMNSLKPEDTAVYYCANKQPRYRLRMNYWGQGTQVTVSS | high polyreactivity
QVQHVESGGGLVQAGGSLRLSCAASGRISQIYAMGWYRQAPGKERELVARITSTDSTYYADSVKGRFTISRDNAKNTVYLQMNSLKPEDTAVYYCAASWWSPYDYWGQGTQVTVSS | low polyreactivity
QVQHVESGGGLVQAGGSLRLSCAASGRTFAWYAMGRYRQAPGKERELVAAISSGGSTYYADSVKGRFTISRDNAKNTVYLQMNSLKPEDTAVYYCAAEWHYIYAYDYWGQGTQVTVSS | low polyreactivity
